Where no end group is shown, it is not given here. The star is where a group is joined. Acm = CC(=O)NC*
Experiments:
VEGFR-2 = target: T1, VEGFR-2 (Homo sapiens, UniProt P35968); test: VEGF-induced VEGFR-2 phosphorylation in HUVEC (immunoprecipitation, western blot); format: cell-based; conditions: serum-starved HUVEC, 300 μg/ml; 24 h
T1 construct: host or cells: HUVEC
Protocol: (§1) Cell culture. Human umbilical vein endothelial cells (HUVEC) and pulmonary aortic smooth muscle cells (PASMC) were obtained from Clonetics and maintained in endothelial cell basal medium-2, (EBM-2; Clonetics) and smooth muscle medium-2 (SmGM-2; Clonetics), respectively. Cells were cultured at 37° C. under a humidified atmosphere containing 5% CO2. For experimental purposes, cells were plated in 8 100-mm plastic dishes at 5,000 cells/cm^2 and were grown to confluence before overnight serum starvation. Cells were treated with vehicle or with a PCK3145 derivative diluted in 0.1 N NaOH, and stimulated with 50 ng/ml VEGF, PDGF or with 1 μM S1P.
Immunoprecipitation and immunoblotting procedures. After treatment, cells were washed once with phosphate-buffered saline (PBS) containing 1 mM sodium orthovanadate and were incubated in the same medium for 1 h at 4° C. The cells were solubilized on ice in lysis buffer (150 mM NaCl, 10 mM Tris-HCl, pH 7.4, 1 mM EDTA, 1 mM EGTA, 0.5% Nonidet P-40, 1% Triton X-100) containing 1 mM sodium orthovanadate. The cells were then scraped from the culture dishes and the resulting lysates were clarified by centrifugation at 10,000 g for 10 min. Protein concentrations were determined using the micro bicinchoninic acid method. For immunoprecipitation studies, lysates were clarified by a 1 h incubation at 4° C. with a mixture of Protein A/Protein G Sepharose beads. After removal of the Sepharose beads by low-speed centrifugation, identical amounts of protein (200 μg) from each sample were transferred to fresh tubes and incubated in lysis buffer overnight at 4° C. in the presence of 2 μg/ml of specific antibodies. […]
The multifunctionality of VEGF at the cellular level results from its ability to initiate a diverse, complex and integrated network of signaling pathways via its major receptor, VEGFR-2. […] After each treatment, equal amounts of protein were immunoprecipitated with anti-VEGFR-2 polyclonal antibodies and analysed by Western blotting.

ERK [1] = test: Growth factor-induced ERK phosphorylation in HUVEC (western blot); format: cell-based, Human; conditions: serum-starved HUVEC, 300 μg/ml for 24 h, then VEGF
Protocol: as §1
Immunoprecipitation and immunoblotting procedures. After treatment, cells were washed once with phosphate-buffered saline (PBS) containing 1 mM sodium orthovanadate and were incubated in the same medium for 1 h at 4° C. The cells were solubilized on ice in lysis buffer (150 mM NaCl, 10 mM Tris-HCl, pH 7.4, 1 mM EDTA, 1 mM EGTA, 0.5% Nonidet P-40, 1% Triton X-100) containing 1 mM sodium orthovanadate. The cells were then scraped from the culture dishes and the resulting lysates were clarified by centrifugation at 10,000 g for 10 min. Protein concentrations were determined using the micro bicinchoninic acid method. For immunoprecipitation studies, lysates were clarified by a 1 h incubation at 4° C. with a mixture of Protein A/Protein G Sepharose beads. After removal of the Sepharose beads by low-speed centrifugation, identical amounts of protein (200 μg) from each sample were transferred to fresh tubes and incubated in lysis buffer overnight at 4° C. in the presence of 2 μg/ml of specific antibodies. Immunocomplexes were collected by incubating the mixture with 25 μl (50% suspension) of Protein A—(rabbit primary antibody) or Protein G—(mouse primary antibody) Sepharose beads, for 2 h. Nonspecifically-bound material was removed by washing the beads three times in 1 ml of lysis buffer containing 1 mM sodium orthovanadate, and bound material was solubilized in 25 μl of two-fold concentrated Laemmli sample buffer, boiled 5 min, and resolved by SDS-PAGE. The proteins were transferred onto polyvinylidene difluoride (PVDF) membranes, blocked 1 h at room temperature with Tris-buffered saline/Tween 20 (147 mM NaCl, 20 mM Tris/HCl, pH 7.5, and 0.1% Tween 20) containing 2% bovine serum albumin and incubated overnight at 4° C. with primary antibody.
VEGF is a strong activator of ERKs (Extracellular-signal-Regulated protein Kinases) 1 and 2 via VEGF receptor 2. In order to test the ability of the PCK3145 derivative in potentially antagonizing VEGF-mediated ERK phosphorylation, serum-starved quiescent endothelial cells (HUVEC) were incubated with vehicle (phosphate-buffered saline (PBS) pH 7.4) or PCK3145 derivative (300 μg/ml) for 24 h and then stimulated with VEGF, bFGF (basic Fibroblast Growth Factor) or S1P (sphingosine-1-phosphate). Cells were washed with PBS containing NaF/Na3VO4 and incubated in the same medium buffer for 1 h at 4° C. The cells were scraped from the culture dishes and the resulting lysates clarified by centrifugation. Western blotting and immunodetection using anti-phosphoERK and anti-ERK antibodies was then performed.

tumor growth = conditions: animals, previous results; cited from earlier work
ERK [2] = test: Intrinsic effect on ERK phosphorylation (western blot); format: cell-based; conditions: MAPK inhibitor added with PCK3145 derivative
Protocol: In order to investigate the potential intracellular pathways triggered by the PCK3145 derivative, a gene-reporter assay using the SEAP (Secreted Alkaline Phosphatase) Mercury Profiling Kit (CLONTECH) was performed in glioma cells (U-87). This assay enables the monitoring of transcription factors that are triggered by a particular experimental condition by assaying the alkaline phosphatase activity in the extracellular media. […] The induction of the MAPK pathway by the PCK3145 derivative is further confirmed by the rapid and transient induction of ERK phosphorylation between 5-10 minutes (FIG. 8B) and is shown to be dose-dependent (FIG. 8C). Finally, the effects of the PCK3145 derivative were also compared to those of a scrambled peptide.

ERK [3] = conditions: cited from earlier work
skeletal metastasis = conditions: cited from earlier work
tumor cells = conditions: cited from earlier work

T1 sequence (P35968 20-1356): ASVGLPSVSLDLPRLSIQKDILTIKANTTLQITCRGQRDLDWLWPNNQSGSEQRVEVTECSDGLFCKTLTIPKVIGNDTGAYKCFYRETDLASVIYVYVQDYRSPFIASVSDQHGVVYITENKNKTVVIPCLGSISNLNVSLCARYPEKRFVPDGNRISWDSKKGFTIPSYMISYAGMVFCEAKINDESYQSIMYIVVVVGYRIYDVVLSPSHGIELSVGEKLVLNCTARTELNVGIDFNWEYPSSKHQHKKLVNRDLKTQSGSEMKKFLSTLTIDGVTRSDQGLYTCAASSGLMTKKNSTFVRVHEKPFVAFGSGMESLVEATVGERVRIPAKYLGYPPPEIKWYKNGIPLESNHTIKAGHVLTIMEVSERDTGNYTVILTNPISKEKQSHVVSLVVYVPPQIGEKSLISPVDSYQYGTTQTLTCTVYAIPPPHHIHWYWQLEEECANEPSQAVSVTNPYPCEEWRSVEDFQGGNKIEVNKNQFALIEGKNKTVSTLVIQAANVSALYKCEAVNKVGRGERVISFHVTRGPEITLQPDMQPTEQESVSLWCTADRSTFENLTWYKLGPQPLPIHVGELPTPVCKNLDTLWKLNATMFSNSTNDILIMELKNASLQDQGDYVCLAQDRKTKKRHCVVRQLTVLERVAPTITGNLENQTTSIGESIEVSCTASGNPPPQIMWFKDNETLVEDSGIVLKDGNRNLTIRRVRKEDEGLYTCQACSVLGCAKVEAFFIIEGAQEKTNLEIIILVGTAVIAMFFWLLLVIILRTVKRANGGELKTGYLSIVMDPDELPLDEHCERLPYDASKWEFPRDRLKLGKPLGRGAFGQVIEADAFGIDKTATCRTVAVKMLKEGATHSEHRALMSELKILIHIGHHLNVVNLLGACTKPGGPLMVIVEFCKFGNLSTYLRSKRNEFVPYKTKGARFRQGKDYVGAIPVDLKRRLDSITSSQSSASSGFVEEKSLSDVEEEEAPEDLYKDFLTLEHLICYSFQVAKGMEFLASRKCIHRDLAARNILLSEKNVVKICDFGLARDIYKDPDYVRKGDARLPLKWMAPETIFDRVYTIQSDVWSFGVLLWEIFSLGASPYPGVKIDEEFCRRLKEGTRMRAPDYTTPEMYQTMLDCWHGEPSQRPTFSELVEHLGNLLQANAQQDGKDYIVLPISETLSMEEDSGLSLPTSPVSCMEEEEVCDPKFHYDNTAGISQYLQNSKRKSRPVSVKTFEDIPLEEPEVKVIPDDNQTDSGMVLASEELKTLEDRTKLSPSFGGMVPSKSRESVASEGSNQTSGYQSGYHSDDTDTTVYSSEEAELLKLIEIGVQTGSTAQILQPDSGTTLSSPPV

Thr-Cys(Acm)-Glu-Asn-Cys(Acm)-Thr-Glu-Thr-Gln-Trp-Cys(Acm)-Glu-Thr-Asp-Tyr (TC(Acm)ENC(Acm)TETQWC(Acm)ETDY) [scrambled peptide, negative control, reference compound]
phosphorylation of VEGFR-2 induced by VEGF (VEGFR-2): lack of effect
ERK phosphorylation induced by VEGF (ERK [1]): lack of effect

EWQTDNCETCTCYET (cysteine pairing not given here) [PCK3145]
tumor growth (tumor growth): tumor growth inhibition

COc1cccc(-c2cc(=O)c3ccccc3o2)c1N [PD98059, reference compound]
effect on induction of ERK phosphorylation by the PCK3145 derivative (ERK [2]): antagonized
ERK phosphorylation (pharmacological inhibitor, documented) (ERK [3]): documented pharmacological inhibitor of ERK phosphorylation

B1: Ser Cys Tyr Phe Ile Pro Asn Glu Gly Val Pro Gly Asp Ser Thr Arg Lys Cys Met Asp Leu Lys Gly Asn Lys His Pro Ile Asn Ser Glu Trp Gln Thr Asp Asn Cys Glu Thr Cys Thr Cys Tyr Glu Thr Glu Ile Ser Cys Cys … (protein, listed as Homo sapiens)
chain: SCYFIPNEGVPGDSTRKCMDLKGNKHPINSEWQTDNCETCTCYETEISCCTLVSTPVGYDKDNCQRIFKKEDCKYIVVEKKDPKKTCSVSEWII
notes: Prostate secretory protein, wild type
calcium levels (skeletal metastasis; animal modeling prostate cancer): reduction in calcium levels
development of skeletal metastasis (skeletal metastasis; in vivo): reduces the development of skeletal metastasis
growth of tumor cells (tumor cells): inhibits growth
